Experimental findings from the supplement of paper PMC12042874 are described below.

The data set in a line: amyloid nucleation score (Sup35N fusion, yeast selection) (log enrichment); library NNK3; higher = more nucleation; inactive = no reads after selection. The method in brief: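 Nucleation score: DiMSum log enrichment of output over input reads, centred on the mode score of non-aggregating sequences. Only sequences with at least 100 input reads were kept. Reads came from Illumina sequencing of plasmid inserts before and after 7 days of growth at 30°C without adenine and uracil, in psi-negative yeast expressing Sup35N fused to peptides of 20 random codons after 24 hours of induction with 100 μM copper sulfate.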

± gives the uncertainty stated by the source.

For the substance TFEQVCVLL, the amyloid nucleation score result is “inactive”.

The substance VHVYFRLADL showed an amyloid nucleation score of 1.3 ± 0.14.

For the substance TRWGCSSSSNFGCFDDKRRL, the amyloid nucleation score entry is “inactive”.

On to FQTGPRYAWGLQTGLNKQVC, for which the amyloid nucleation score result was “inactive”.

GICHAACCCANVMYCSWHVR returned an amyloid nucleation score of 1 ± 0.16.

For the substance GAGRNFGTVCL, the amyloid nucleation score entry is “inactive”.

In the case of GLEGLLVLWFQCSFTVAALR, the amyloid nucleation score entry was “inactive”.

Take MNRKVVANSGDRDGIVRTSS: the amyloid nucleation score worked out at 0.278 ± 0.43.

Consider SAKSRFSRIVSRFYHMVICA, for which the amyloid nucleation score result was “inactive”.

With THSVIFRVRYHLSYNAIRIF, the amyloid nucleation score result was “inactive”.

Consider LFYFKRFWYVLLLANLLDM, for which the amyloid nucleation score result was “inactive”.

Consider MSYINRAPFAMSGLFCAWFD, for which the amyloid nucleation score entry is “inactive”.

On to GRRTARKIKAGPYLCWKDGT, for which the amyloid nucleation score result was “inactive”.

In turn, YLMVTVSALPSACCGVCVPW returned an amyloid nucleation score of 1.48 ± 0.1.

For the substance TYIRGQRCDIQMETWMTLCS, the amyloid nucleation score result is “inactive”.

FQRVGRFPSYSTCAGRVATG: the amyloid nucleation score entry was “inactive”.

Turning to RIVGEYSLKGCEVNVSWVKS, the amyloid nucleation score result is “inactive”.

On to FLLVR, for which the amyloid nucleation score result was “inactive”.

KGSSC: the amyloid nucleation score entry is “inactive”.

As for IIRCKMM, the amyloid nucleation score is -0.538 ± 0.57.

For TDNAVMGSHCI, the amyloid nucleation score result is “inactive”.

NASNHSVSTRCVVDRG: the amyloid nucleation score result was “inactive”.

Consider SLIWPSYDYLDNFLGYYSLK, for which the amyloid nucleation score entry was “inactive”.

For TNMYSDSVIYVMHYGIPGGP, the amyloid nucleation score came to 1.63 ± 0.092.

For HEWATWRDVLQVTTFFVLHM, the amyloid nucleation score entry is “inactive”.

Regarding QVDFQLCH, the amyloid nucleation score result is “inactive”.

Turning to LNLETLISWLSVCPRGRTEE, the amyloid nucleation score entry is “inactive”.

Turning to ELHYPVLVDS, the amyloid nucleation score result is “inactive”.

With VLVMISSWNYLMCIFFCINV, the amyloid nucleation score result was “inactive”.

GDRLFLKASG: the amyloid nucleation score result is “inactive”.

For TRWLCLDKLHLFLLCGKIAI, the amyloid nucleation score result was “inactive”.

On to DLVVNGSFNTDTCFETVSVH, for which the amyloid nucleation score entry is “inactive”.

SYMVKM: the amyloid nucleation score result was “inactive”.

As for DYTCACLRVRI, the amyloid nucleation score is -0.047 ± 0.98.

As to LWKLSSNSYWFVSCNGLKYS, the amyloid nucleation score result was “inactive”.

Turning to SSTLHRQIRRGVTVNELLRG, the amyloid nucleation score entry was “inactive”.

With SRYQMGYKCFMSWHHTGHFN, the amyloid nucleation score result is “inactive”.

Regarding SYSHRVVLRDTRTRQAKPRA, the amyloid nucleation score result was “inactive”.

In the case of LCCGVCR, the amyloid nucleation score result was “inactive”.

NIRWMFNLYACRLLRLVHF yielded an amyloid nucleation score of 0.44 ± 0.23.

For the substance TWNGMWFVLSSL, the amyloid nucleation score entry was “inactive”.

Regarding ESPNGFFGSMDVCVLPRGSV, the amyloid nucleation score entry is “inactive”.

As for FSREYP, the amyloid nucleation score result was “inactive”.

IECRARRSVCLL: the amyloid nucleation score result is “inactive”.

With FMIAQGYHMLYLKHLCTSRN, the amyloid nucleation score entry was “inactive”.

Consider VSVCLVCAVIPRLLSMRCIV, for which the amyloid nucleation score entry was “inactive”.

For the substance MLQWVESLGGICITRSVLIL, the amyloid nucleation score entry was “inactive”.

Consider SSVSSMRRSHYETMMGRTVG, for which the amyloid nucleation score entry was “inactive”.

Consider HLGFVEYAAKYTMVVCGRAV, for which the amyloid nucleation score entry was “inactive”.

With DGHKCCTG, the amyloid nucleation score result is “inactive”.

In turn, SRVITDVHERVAVGGVVIWD registered an amyloid nucleation score of 0.003 ± 0.31.

With VTLTLEGLDRWVNQSEIAPS, the amyloid nucleation score was 0.071 ± 0.29.

Substance DYFEYCRRSKRFPKKDQPVN registered an amyloid nucleation score of -0.638 ± 0.84.

Substance SMNFLLLISMCNLWPSYAAL had an amyloid nucleation score of 1.36 ± 0.14.

Consider SAHEFIVDCRYESIRMFVII, for which the amyloid nucleation score result was “inactive”.

In the case of DNKLDNRYLGYRFRCTTFHF, the amyloid nucleation score result is “inactive”.

Take MTWGSNFSDNGYKLEIMCYQ: the amyloid nucleation score entry was “inactive”.

The substance RFRVLTYIISYSFSFCHHVW registered an amyloid nucleation score of 0.356 ± 0.27.

FIFYFCAVLNHYVCVWVRYL: the amyloid nucleation score entry was “inactive”.

In turn, ALAMTFVNIDKSFFFNVYSM showed an amyloid nucleation score of 2.89 ± 0.069.

Substance LLWKKRVEEDSWLHTGSERM gave an amyloid nucleation score of 0.904 ± 0.15.

Take SCIYTMAIRNNKVRCYFRAG: the amyloid nucleation score entry is “inactive”.

YDADRGEWLQLITSPDPFFY: the amyloid nucleation score entry was “inactive”.

Take FASIYNFHDRIVSLRDQGR: the amyloid nucleation score entry is “inactive”.

With LSWIWNLANSVKDNMGGMRM, the amyloid nucleation score result is “inactive”.

EVYKYKSEERMVAST: the amyloid nucleation score result was “inactive”.

As for FILMLVTKLRAHLRGEIRGE, the amyloid nucleation score result was “inactive”.

Turning to GFLCDGGN, the amyloid nucleation score came out at 0.149 ± 0.51.

Turning to ERHDGCFQ, the amyloid nucleation score result is “inactive”.

On to ISMFCMIGFEVW, for which the amyloid nucleation score entry was “inactive”.

For AKCFFPGVNLMVGSQLFWLR, the amyloid nucleation score result is “inactive”.

With RFRKG, the amyloid nucleation score entry was “inactive”.

Turning to LYPFSGESQA, the amyloid nucleation score result is “inactive”.

Regarding KPLSRSLRHSLCNRTAMIRF, the amyloid nucleation score was determined as 0.672 ± 0.32.

For the substance VVVIHE, the amyloid nucleation score entry is “inactive”.

In the case of YPSDPLLILDLGIAAC, the amyloid nucleation score entry was “inactive”.

For the substance FRGKISKEPNCVVYFQQGRP, the amyloid nucleation score result is “inactive”.

With LPSICVSPI, the amyloid nucleation score result is “inactive”.

Take PLTVI: the amyloid nucleation score result was “inactive”.

As to CSVGVAVGMIG, the amyloid nucleation score entry is “inactive”.

Take EGRWTCPFGGWTESFGSLYW: the amyloid nucleation score result was “inactive”.

EINMKSLV: the amyloid nucleation score entry is “inactive”.

Regarding SNCGL, the amyloid nucleation score turned out to be 0.832 ± 0.28.

Consider SENMTGFLNRTSIISPWTYC, for which the amyloid nucleation score entry is “inactive”.

Turning to RNWERIASGHVFCFLLCIID, the amyloid nucleation score result was “inactive”.

In the case of NGVVMVKSRNVPADKSNCDG, the amyloid nucleation score entry is “inactive”.

Substance VNWSSFIFESTSIFS came in with an amyloid nucleation score of 0.476 ± 0.28.

Take SASGGFVLFLWLVCEGTFAG: the amyloid nucleation score was 0.069 ± 0.38.

For YHDLKNATHVV, the amyloid nucleation score entry is “inactive”.

Substance SGVYLNVIWNCDIGDING yielded an amyloid nucleation score of 1.49 ± 0.12.

For HGLFTFVGCHCLCRN, the amyloid nucleation score amounted to 0.939 ± 0.16.

For the substance ILFLNHDMWQCDNDSLKAIH, the amyloid nucleation score entry is “inactive”.

Take LKVTSFKALHCLTAYHSSPL: the amyloid nucleation score result is “inactive”.

WFFMTCNGCFDHGGVKCLRS: the amyloid nucleation score result was “inactive”.

As to LSYFSLFYADGRHFRCLLDN, the amyloid nucleation score entry is “inactive”.

For the substance YERLLRDKALAPIDPI, the amyloid nucleation score entry was “inactive”.

The substance RMLLICNFGIVCQPMTSLQR yielded an amyloid nucleation score of 2.24 ± 0.063.

As for EVSSGCCERGVYLMLLCTGT, the amyloid nucleation score came out at 0.091 ± 0.53.

AVGKM: the amyloid nucleation score was -0.082 ± 0.88.

Consider DLNLVMSSGSRDRLNSLLRR, for which the amyloid nucleation score result was “inactive”.

FLEKGLFSLDISFARDLAEA: the amyloid nucleation score result is “inactive”.

As for ICTCKWRLTLEQTSFVDGLT, the amyloid nucleation score result was “inactive”.

Regarding VILVFIFRYLHTPSGSSGAR, the amyloid nucleation score result was “inactive”.

As for VNYYRCWLVSIRYYSLHDHL, the amyloid nucleation score came to 2.35 ± 0.055.

Consider TSCLNKKHAVGFSCVFYH, for which the amyloid nucleation score entry was “inactive”.

For the substance IFLCLSICMFRPFRMVLS, the amyloid nucleation score result was “inactive”.

As to TRPSTIHFPVWFVGKSCRCD, the amyloid nucleation score result was “inactive”.

Turning to ITTVRAYEALTWNMFWVQCV, the amyloid nucleation score entry is “inactive”.

YLSRLIIFLSLPD: the amyloid nucleation score entry is “inactive”.

Turning to KSWVRGH, the amyloid nucleation score result was “inactive”.

Consider TYLALGLSSSMLRESLKWEV, for which the amyloid nucleation score result is “inactive”.

Regarding SGLDMRYHWNFVICQATRSY, the amyloid nucleation score entry was “inactive”.

As for YTLIIRLCFFNIGCAYRFSM, the amyloid nucleation score result is “inactive”.

Take GKEKCTMNSHATLRVDVEMT: the amyloid nucleation score entry is “inactive”.

For the substance SMPRAEHSDVSCYAHYFSFR, the amyloid nucleation score entry was “inactive”.

Regarding AGSDHVLRDRHYVVMPQEFL, the amyloid nucleation score result is “inactive”.

Turning to WIGSRGHQCPYRSSVTMMGT, the amyloid nucleation score result is “inactive”.

For the substance IVCMLQFEVVVLHACRFESK, the amyloid nucleation score result is “inactive”.

As for VSCYSRYRVVVHRGSVVISR, the amyloid nucleation score result was “inactive”.

Consider LGVFSRRACYLFRICLTELI, for which the amyloid nucleation score entry was “inactive”.

The substance EYIAFISTIPDMSLFSDVLF returned an amyloid nucleation score of 0.653 ± 0.11.

With RVMWYGGCCWSVIYCHRLGV, the amyloid nucleation score entry was “inactive”.

As for GSHNAMLSAISADAGAWQRE, the amyloid nucleation score result was “inactive”.

GFIHWRGAIWVSL registered an amyloid nucleation score of -0.65 ± 1.9.

With NIIKTLAVRSGRRFRFLVRW, the amyloid nucleation score result is “inactive”.

In the case of QIVFIRPKNL, the amyloid nucleation score entry was “inactive”.

Take SGATVLSLSMY: the amyloid nucleation score result was “inactive”.

As to VDVYLDYDIAMQPGVYALWR, the amyloid nucleation score entry is “inactive”.

As to FELDIAYTEVLAVDCIPVVL, the amyloid nucleation score result is “inactive”.

For the substance NDTFVY, the amyloid nucleation score entry is “inactive”.

With VSLKEITKLYRSIWVFLWSS, the amyloid nucleation score entry is “inactive”.
